The results in this text go back to patent publication US20220073608A1 (JIANGSU HUAIYU PHARMACEUTICAL, published 2022).

The target in assay [1] is T1, human SEMA4D, full length, on CHO-K1 cells (CHO-K1 hSEMA4D) (human, UniProt Q92854 22-862).
T1 construct: whole, on cells; also called human SEMA4D recombinant cells
T1 sequence (looked up): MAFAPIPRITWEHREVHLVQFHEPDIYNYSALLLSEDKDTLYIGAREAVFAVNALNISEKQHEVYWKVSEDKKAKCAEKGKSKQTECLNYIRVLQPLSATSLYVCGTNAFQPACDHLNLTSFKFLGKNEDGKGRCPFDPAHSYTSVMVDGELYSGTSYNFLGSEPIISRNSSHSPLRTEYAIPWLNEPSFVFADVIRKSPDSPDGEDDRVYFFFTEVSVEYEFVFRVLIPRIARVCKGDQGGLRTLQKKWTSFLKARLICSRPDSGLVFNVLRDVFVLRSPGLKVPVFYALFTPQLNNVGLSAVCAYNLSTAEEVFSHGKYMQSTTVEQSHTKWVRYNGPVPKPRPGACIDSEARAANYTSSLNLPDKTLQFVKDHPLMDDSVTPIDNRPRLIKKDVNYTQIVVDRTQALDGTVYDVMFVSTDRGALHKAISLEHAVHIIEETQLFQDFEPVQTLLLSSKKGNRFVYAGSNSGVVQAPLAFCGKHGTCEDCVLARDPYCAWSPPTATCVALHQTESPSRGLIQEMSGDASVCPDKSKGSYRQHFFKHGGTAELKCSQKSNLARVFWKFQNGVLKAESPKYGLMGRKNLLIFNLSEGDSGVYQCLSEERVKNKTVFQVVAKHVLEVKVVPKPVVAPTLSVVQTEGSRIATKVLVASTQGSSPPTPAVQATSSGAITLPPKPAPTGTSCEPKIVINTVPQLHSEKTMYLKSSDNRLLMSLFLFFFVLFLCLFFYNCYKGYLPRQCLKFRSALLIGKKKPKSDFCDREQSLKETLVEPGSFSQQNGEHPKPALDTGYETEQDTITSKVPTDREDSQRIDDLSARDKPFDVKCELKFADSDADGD
The assay can be described thus: FACS, CHO-K1 hSEMA4D cells; Ab 2.67 nM. Here is the method:
(§1) The medium was aspirated, the cells were washed once with PBS buffer (purchased from Invitrogen), and then treated with cell dissociation fluid (TrypLE™ Express Enzyme, purchased from Life technology), and the cells were collected. After the cells counted, the cells were washed once with PBS phosphate buffer, and diluted to 3×10⁶ cells per milliliter, and added to the 96-well FACS reaction plate as 100 μL per well. 2% (w/w) fetal calf serum was added to PBS phosphate buffer as FACS buffer, with which the cells were washed once by centrifugation at 2000 rpm 4° C. 100 μL of diluted and purified leading antibodies was added to each well and the plate was incubated for 1 hour on ice. […] Cells were washed 2 times by centrifugation with FACS buffer. The cells were suspended with 200 μL of FACS buffer, and FACS (FACS Verse, purchased from BD) was used to detect and analyze the results.
Background: Flow cytometry measures light scatter and fluorescence of single cells or particles in a stream.

Assay [2] addresses T2, mouse SEMA4D, full length, on CHO-K1 cells (CHO-K1 mSEMA4D) (mouse, UniProt O09126 24-861).
T2 construct: whole, on cells; also called murine SEMA4D recombinant cells
T2 sequence (looked up): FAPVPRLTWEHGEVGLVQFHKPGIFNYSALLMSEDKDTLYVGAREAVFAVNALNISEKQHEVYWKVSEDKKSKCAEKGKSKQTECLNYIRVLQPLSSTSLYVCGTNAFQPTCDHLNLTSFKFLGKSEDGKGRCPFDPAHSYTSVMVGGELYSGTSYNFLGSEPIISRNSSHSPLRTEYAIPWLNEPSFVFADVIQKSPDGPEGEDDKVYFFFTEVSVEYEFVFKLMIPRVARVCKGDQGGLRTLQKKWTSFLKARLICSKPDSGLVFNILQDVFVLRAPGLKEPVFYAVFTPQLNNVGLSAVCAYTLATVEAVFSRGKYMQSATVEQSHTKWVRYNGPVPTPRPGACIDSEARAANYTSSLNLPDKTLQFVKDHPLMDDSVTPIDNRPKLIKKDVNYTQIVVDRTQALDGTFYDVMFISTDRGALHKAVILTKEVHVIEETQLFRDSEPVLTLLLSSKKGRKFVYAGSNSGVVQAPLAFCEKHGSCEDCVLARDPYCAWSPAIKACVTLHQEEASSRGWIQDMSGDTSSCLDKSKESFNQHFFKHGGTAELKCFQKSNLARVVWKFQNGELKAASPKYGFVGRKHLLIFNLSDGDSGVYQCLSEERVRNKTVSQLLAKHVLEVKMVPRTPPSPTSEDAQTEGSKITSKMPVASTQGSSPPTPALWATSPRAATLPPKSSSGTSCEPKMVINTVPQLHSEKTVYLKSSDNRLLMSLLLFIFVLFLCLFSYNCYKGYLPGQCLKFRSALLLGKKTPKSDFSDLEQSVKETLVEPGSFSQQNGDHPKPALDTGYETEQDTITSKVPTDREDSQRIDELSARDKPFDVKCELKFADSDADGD
The assay can be described thus: FACS, CHO-K1 mSEMA4D cells; Ab 66.7 nM. Here is the method:
After the cells were counted, they were diluted with PBS to 2×10⁶ cells per milliliter. After washing, 100 μL of diluted and purified leading antibodies was added to each well and the plate was incubated for 1 hour on ice. […] Cells were washed 2 times by centrifugation with FACS buffer. The cells were suspended with 200 μL of FACS buffer, FACS (FACS Verse, purchased from BD) was used to detect and analyze the results.

Assay [3] addresses T1, human SEMA4D, full length, on CHO-K1 …. The assay can be described thus: FACS, CHO-K1 hSEMA4D cells; Ab 0.107 nM. As to the method:
as §1

The target is the same in assay [4]. Nature of the assay: FACS, CHO-K1 hSEMA4D cells; Ab 0.534 nM. Here is the method:
as §1

Assay [5] shares this target. Nature of the assay: FACS, CHO-K1 hSEMA4D cells; Ab 0.000853 nM. As to the method: as §1

Changes are numbered by the printed parent chain.

B1: 42B7G2 (antibody, V domains shown)
VH: QVQLQQSGAELARPGASVKLSCKASGYTFTDYGISWVKQRTGQGLEWIGEIYLRNDNSYYNEKFKGKATLTADKSSNTAYMELRSLTSEDSAVYFCARWGDHGNNYEDAMDYWGQGTSVTVSS
VL: DIVLTQSPASLAMSLGKRATISCRASESVSIIGSNLIHWYQQKPGQPPKLLIYHASNLETGVPARFSGSGSRTDFTLTIDPVEEDDVAIYYCLQSRKVPYTFGGGTKLEIK
notes: Mouse monoclonal antibody purified from hybridoma supernatant on protein A
As to B1, the MFI was 3790 in assay [1]; 35.3 in assay [2]; 598 in assay [3]; 2000 in assay [4]; 41.2 in assay [5].

B2: 32C8F10 (antibody, V domains shown)
VH: EVQLQQSGAELVRPGASVKLSCTASGFNIKDEYIHWVKQRPEQGLEWIGWIDPANGHTEYASRFQAKATITADTSSNTAYLQLSSLTSEDTAVYYCTTGDYDGFAYWGQGTLVTVST
VL: QIVLTQSPAIMSASPGEKVTISCSARSSVSYMYWYQQKPGSSPKPWIYRTSNLASGVPARFSGSGSGTSYSLTISSMEAEDAATYYCQHYHTYPYTFGGGTKLEIK
notes: as for B1
In the case of B2, the MFI came to 6170 in assay [1]; 31.7 in assay [2]; 832 in assay [3]; 2920 in assay [4]; 47.3 in assay [5].

B3: 31C11G2 (antibody, V domains shown)
VH: B2 VH with A105V
VL: B2 VL with S22F
notes: as for B1
For the molecule B3, the MFI in assay [1] stood at 5970; in assay [2], 31.4; in assay [3], 906; in assay [4] it was 3140; in assay [5], 46.7.

B4: 31G10C5 (antibody, V domains shown)
VH: B2 VH with E32D, T58I, R63N, A105T
VL: B2 VL
notes: as for B1
B4: the MFI in assay [1] stood at 5860; in assay [2], 32.4; in assay [3], 855; in assay [4] it was 3070; in assay [5] it was 47.

B5: 37C4F7 (antibody, V domains shown)
VH: EFQLQQSGPEVVKPGASVKISCKASGYSFTDYNMNWMKQSKGKSLEWIGVINPNYGTTTYNQNFKGKATLTVDQSSSTAYMQLNSLTSEDSAVYYCARDMYYVYAYYTMDYWGQGTSVTVSS
VL: DVVMTQTPLSLPVSLGDQASISCRSSQSLVHSNGHTYLHWYLQRPGQSPTLLIYKVSNRFSGVPDRFSGSGSGTDFTLKISRVEAEDLGVYFCSQGTHVPWTFGGGTKLEIK
notes: as for B1
Regarding B5, the MFI in assay [1] came out at 2340; in assay [2], 30; in assay [3], 210; in assay [4] it was 738; in assay [5] it was 36.9.

B6: 38H2E3 (antibody, V domains shown)
VH: B5 VH with N52S, N54D, G66D, R98K, Q114H
VL: B5 VL with F67V, W101R
notes: as for B1
Consider B6, for which the MFI in assay [1] is 2370; in assay [2], 30; in assay [3] it was 215; in assay [4], 763; in assay [5], 36.7.

B7: 37F11F9 (antibody, V domains shown)
VH: EVQLQQSGPVLVKPGASVKMSCKASGYTFTDYYMNWVKQSHGKSLEWIGLINPYSGGSTFNQKFKAKATLTVDKSSSSAYMDLNSLTSEDSAVYYCARVGDGYYGVTHGMDYWGQGTSVTVSS
VL: DIVMTPSQKFMSTTVGDRVSITCKASQNVGTAVAWYQQKPGQSPTILIYSASNRYTGVPDRFTGSGSGTDFTLTISNMKSEDLADYFCQQYYIYPFTFAAGTKLELK
notes: as for B1
For the molecule B7, the MFI in assay [1] was found to be 2880; in assay [2] it was 31; in assay [3], 308; in assay [4], 1120; in assay [5], 38.2.
